These results are taken from PMC10245805 (bioRxiv, 2024).

The series deals with the molecule itself. Kind of series: cryo-EM structure.

B1: wild-type (WT) human asparagine synthetase (ASNS) (enzyme, UniProt P08243 1-561, looked up)
chain: MCGIWALFGSDDCLSVQCLSAMKIAHRGPDAFRFENVNGYTNCCFGFHRLAVVDPLFGMQPIRVKKYPYLWLCYNGEIYNHKKMQQHFEFEYQTKVDGEIILHLYDKGGIEQTICMLDGVFAFVLLDTANKKVFLGRDTYGVRPLFKAMTEDGFLAVCSEAKGLVTLKHSATPFLKVEPFLPGHYEVLDLKPNGKVASVEMVKYHHCRDVPLHALYDNVEKLFPGFEIETVKNNLRILFNNAVKKRLMTDRRIGCLLSGGLDSSLVAATLLKQLKEAQVQYPLQTFAIGMEDSPDLLAARKVADHIGSEHYEVLFNSEEGIQALDEVIFSLETYDITTVRASVGMYLISKYIRKNTDSVVIFSGEGSDELTQGYIYFHKAPSPEKAEEESERLLRELYLFDVLRADRTTAAHGLELRVPFLDHRFSSYYLSLPPEMRIPKNGIEKHLLRETFEDSNLIPKEILWRPKEAFSDGITSVKNSWFKILQEYVEHQVDDAMMANAAQKFPFNTPKTKEGYYYRQVFERHYPGRADWLSHYWMPKWINATDPSARTLTHYKSAVKA
In the case of B1, the “stoichiometry N” value was 2.

B2: R142I variant of human asparagine synthetase (ASNS) (enzyme, UniProt P08243 1-561, looked up)
chain: MCGIWALFGSDDCLSVQCLSAMKIAHRGPDAFRFENVNGYTNCCFGFHRLAVVDPLFGMQPIRVKKYPYLWLCYNGEIYNHKKMQQHFEFEYQTKVDGEIILHLYDKGGIEQTICMLDGVFAFVLLDTANKKVFLGRDTYGVIPLFKAMTEDGFLAVCSEAKGLVTLKHSATPFLKVEPFLPGHYEVLDLKPNGKVASVEMVKYHHCRDVPLHALYDNVEKLFPGFEIETVKNNLRILFNNAVKKRLMTDRRIGCLLSGGLDSSLVAATLLKQLKEAQVQYPLQTFAIGMEDSPDLLAARKVADHIGSEHYEVLFNSEEGIQALDEVIFSLETYDITTVRASVGMYLISKYIRKNTDSVVIFSGEGSDELTQGYIYFHKAPSPEKAEEESERLLRELYLFDVLRADRTTAAHGLELRVPFLDHRFSSYYLSLPPEMRIPKNGIEKHLLRETFEDSNLIPKEILWRPKEAFSDGITSVKNSWFKILQEYVEHQVDDAMMANAAQKFPFNTPKTKEGYYYRQVFERHYPGRADWLSHYWMPKWINATDPSARTLTHYKSAVKA
Take B2: the “stoichiometry N” value came to 2.
